B1: N^α1-[(4S)-4-carboxy-4-(19-carboxynonadecanoylamino)butanoyl]-[Glu14,Arg17,Pro21,Pro27,Pro31]-h-amylin (peptide)
peptide: {C20 diacid-γGlu}-KCNTATCATQRLAEFLRHSSPNFGAIPSSTPVGSNTY-NH2
modifications: disulfide 2-7
SMILES: CC[C@H](C)[C@H](NC(=O)[C@H](C)NC(=O)CNC(=O)[C@H](Cc1ccccc1)NC(=O)[C@H](CC(N)=O)NC(=O)[C@@H]1CCCN1C(=O)[C@H](CO)NC(=O)[C@H](CO)NC(=O)[C@H](Cc1c[nH]cn1)NC(=O)[C@H](CCCNC(=N)N)NC(=O)[C@H](CC(C)C)NC(=O)[C@H](Cc1ccccc1)NC(=O)[C@H](CCC(=O)O)NC(=O)[C@H](C)NC(=O)[C@H](CC(C)C)NC(=O)[C@H](CCCNC(=N)N)NC(=O)[C@H](CCC(N)=O)NC(=O)[C@@H](NC(=O)[C@H](C)NC(=O)[C@@H]1CSSC[C@H](NC(=O)[C@H](CCCCN)NC(=O)CC[C@H](NC(=O)CCCCCCCCCCCCCCCCCCC(=O)O)C(=O)O)C(=O)N[C@@H](CC(N)=O)C(=O)N[C@@H]([C@@H](C)O)C(=O)N[C@@H](C)C(=O)N[C@@H]([C@@H](C)O)C(=O)N1)[C@@H](C)O)C(=O)N1CCC[C@H]1C(=O)N[C@@H](CO)C(=O)N[C@@H](CO)C(=O)N[C@H](C(=O)N1CCC[C@H]1C(=O)N[C@H](C(=O)NCC(=O)N[C@@H](CO)C(=O)N[C@@H](CC(N)=O)C(=O)N[C@H](C(=O)N[C@@H](Cc1ccc(O)cc1)C(N)=O)[C@@H](C)O)C(C)C)[C@@H](C)O
notes: also called compound 31
B2: N^ε1-[2-[2-[2-[[(4S)-4-carboxy-4-(19-carboxynonadecanoylamino)butanoyl]amino]ethoxy]ethoxy]acetyl]-[Arg17,Pro21,Pro27,Arg35]-h-amylin (peptide)
peptide: K([AEEA-γGlu-C20 diacid])CNTATCATQRLANFLRHSSPNFGAIPSSTNVGSRTY-NH2
modifications: disulfide 2-7; N-terminus assumed
SMILES: CC[C@H](C)[C@H](NC(=O)[C@H](C)NC(=O)CNC(=O)[C@H](Cc1ccccc1)NC(=O)[C@H](CC(N)=O)NC(=O)[C@@H]1CCCN1C(=O)[C@H](CO)NC(=O)[C@H](CO)NC(=O)[C@H](Cc1c[nH]cn1)NC(=O)[C@H](CCCNC(=N)N)NC(=O)[C@H](CC(C)C)NC(=O)[C@H](Cc1ccccc1)NC(=O)[C@H](CC(N)=O)NC(=O)[C@H](C)NC(=O)[C@H](CC(C)C)NC(=O)[C@H](CCCNC(=N)N)NC(=O)[C@H](CCC(N)=O)NC(=O)[C@@H](NC(=O)[C@H](C)NC(=O)[C@@H]1CSSC[C@H](NC(=O)[C@@H](N)CCCCNC(=O)COCCOCCNC(=O)CC[C@H](NC(=O)CCCCCCCCCCCCCCCCCCC(=O)O)C(=O)O)C(=O)N[C@@H](CC(N)=O)C(=O)N[C@@H]([C@@H](C)O)C(=O)N[C@@H](C)C(=O)N[C@@H]([C@@H](C)O)C(=O)N1)[C@@H](C)O)C(=O)N1CCC[C@H]1C(=O)N[C@@H](CO)C(=O)N[C@@H](CO)C(=O)N[C@H](C(=O)N[C@@H](CC(N)=O)C(=O)N[C@H](C(=O)NCC(=O)N[C@@H](CO)C(=O)N[C@@H](CCCNC(=N)N)C(=O)N[C@H](C(=O)N[C@@H](Cc1ccc(O)cc1)C(N)=O)[C@@H](C)O)C(C)C)[C@@H](C)O
notes: also called compound 38
B3: N^α1-[(4S)-4-carboxy-4-(19-carboxynonadecanoylamino)butanoyl]-[His14,Arg17,Pro21,Pro27,Glu35]-h-amylin (peptide)
peptide: {C20 diacid-γGlu}-KCNTATCATQRLAHFLRHSSPNFGAIPSSTNVGSETY-NH2
modifications: disulfide 2-7
SMILES: CC[C@H](C)[C@H](NC(=O)[C@H](C)NC(=O)CNC(=O)[C@H](Cc1ccccc1)NC(=O)[C@H](CC(N)=O)NC(=O)[C@@H]1CCCN1C(=O)[C@H](CO)NC(=O)[C@H](CO)NC(=O)[C@H](Cc1c[nH]cn1)NC(=O)[C@H](CCCNC(=N)N)NC(=O)[C@H](CC(C)C)NC(=O)[C@H](Cc1ccccc1)NC(=O)[C@H](Cc1c[nH]cn1)NC(=O)[C@H](C)NC(=O)[C@H](CC(C)C)NC(=O)[C@H](CCCNC(=N)N)NC(=O)[C@H](CCC(N)=O)NC(=O)[C@@H](NC(=O)[C@H](C)NC(=O)[C@@H]1CSSC[C@H](NC(=O)[C@H](CCCCN)NC(=O)CC[C@H](NC(=O)CCCCCCCCCCCCCCCCCCC(=O)O)C(=O)O)C(=O)N[C@@H](CC(N)=O)C(=O)N[C@@H]([C@@H](C)O)C(=O)N[C@@H](C)C(=O)N[C@@H]([C@@H](C)O)C(=O)N1)[C@@H](C)O)C(=O)N1CCC[C@H]1C(=O)N[C@@H](CO)C(=O)N[C@@H](CO)C(=O)N[C@H](C(=O)N[C@@H](CC(N)=O)C(=O)N[C@H](C(=O)NCC(=O)N[C@@H](CO)C(=O)N[C@@H](CCC(=O)O)C(=O)N[C@H](C(=O)N[C@@H](Cc1ccc(O)cc1)C(N)=O)[C@@H](C)O)C(C)C)[C@@H](C)O
notes: also called compound 30
B4: N^ε1-[2-[2-[2-[[2-[2-[2-[[(4S)-4-carboxy-4-(19-carboxynonadecanoylamino)butanoyl]amino]ethoxy]ethoxy]acetyl]amino]ethoxy]ethoxy]acetyl]-[Arg17,Pro21,Pro27,Glu35 … (peptide)
peptide: K([AEEA-AEEA-γGlu-C20 diacid])CNTATCATQRLANFLRHSSPNFGAIPSSTNVGSETY-NH2
modifications: disulfide 2-7; N-terminus assumed
SMILES: CC[C@H](C)[C@H](NC(=O)[C@H](C)NC(=O)CNC(=O)[C@H](Cc1ccccc1)NC(=O)[C@H](CC(N)=O)NC(=O)[C@@H]1CCCN1C(=O)[C@H](CO)NC(=O)[C@H](CO)NC(=O)[C@H](Cc1c[nH]cn1)NC(=O)[C@H](CCCNC(=N)N)NC(=O)[C@H](CC(C)C)NC(=O)[C@H](Cc1ccccc1)NC(=O)[C@H](CC(N)=O)NC(=O)[C@H](C)NC(=O)[C@H](CC(C)C)NC(=O)[C@H](CCCNC(=N)N)NC(=O)[C@H](CCC(N)=O)NC(=O)[C@@H](NC(=O)[C@H](C)NC(=O)[C@@H]1CSSC[C@H](NC(=O)[C@@H](N)CCCCNC(=O)COCCOCCNC(=O)COCCOCCNC(=O)CC[C@H](NC(=O)CCCCCCCCCCCCCCCCCCC(=O)O)C(=O)O)C(=O)N[C@@H](CC(N)=O)C(=O)N[C@@H]([C@@H](C)O)C(=O)N[C@@H](C)C(=O)N[C@@H]([C@@H](C)O)C(=O)N1)[C@@H](C)O)C(=O)N1CCC[C@H]1C(=O)N[C@@H](CO)C(=O)N[C@@H](CO)C(=O)N[C@H](C(=O)N[C@@H](CC(N)=O)C(=O)N[C@H](C(=O)NCC(=O)N[C@@H](CO)C(=O)N[C@@H](CCC(=O)O)C(=O)N[C@H](C(=O)N[C@@H](Cc1ccc(O)cc1)C(N)=O)[C@@H](C)O)C(C)C)[C@@H](C)O
notes: also called compound 25
B5: N^ε1-[2-[2-[2-[[(4S)-4-carboxy-4-(19-carboxynonadecanoylamino)butanoyl]amino]ethoxy]ethoxy]acetyl]-[Arg17,Pro21,Pro27,Glu35]-h-amylin (peptide)
peptide: K([AEEA-γGlu-C20 diacid])CNTATCATQRLANFLRHSSPNFGAIPSSTNVGSETY-NH2
modifications: disulfide 2-7; N-terminus assumed
SMILES: CC[C@H](C)[C@H](NC(=O)[C@H](C)NC(=O)CNC(=O)[C@H](Cc1ccccc1)NC(=O)[C@H](CC(N)=O)NC(=O)[C@@H]1CCCN1C(=O)[C@H](CO)NC(=O)[C@H](CO)NC(=O)[C@H](Cc1c[nH]cn1)NC(=O)[C@H](CCCNC(=N)N)NC(=O)[C@H](CC(C)C)NC(=O)[C@H](Cc1ccccc1)NC(=O)[C@H](CC(N)=O)NC(=O)[C@H](C)NC(=O)[C@H](CC(C)C)NC(=O)[C@H](CCCNC(=N)N)NC(=O)[C@H](CCC(N)=O)NC(=O)[C@@H](NC(=O)[C@H](C)NC(=O)[C@@H]1CSSC[C@H](NC(=O)[C@@H](N)CCCCNC(=O)COCCOCCNC(=O)CC[C@H](NC(=O)CCCCCCCCCCCCCCCCCCC(=O)O)C(=O)O)C(=O)N[C@@H](CC(N)=O)C(=O)N[C@@H]([C@@H](C)O)C(=O)N[C@@H](C)C(=O)N[C@@H]([C@@H](C)O)C(=O)N1)[C@@H](C)O)C(=O)N1CCC[C@H]1C(=O)N[C@@H](CO)C(=O)N[C@@H](CO)C(=O)N[C@H](C(=O)N[C@@H](CC(N)=O)C(=O)N[C@H](C(=O)NCC(=O)N[C@@H](CO)C(=O)N[C@@H](CCC(=O)O)C(=O)N[C@H](C(=O)N[C@@H](Cc1ccc(O)cc1)C(N)=O)[C@@H](C)O)C(C)C)[C@@H](C)O
notes: also called compound 26

Numbered stars: 1 amine (or outer) side, 2 acyl side, 3 side chain; on linkers, the order of the positions; unused ones are H or OH. Bridge positions count the residues as written; N and C are the ends. Side chains are listed from the residue outwards. Ends that are not written are not given here. * marks the point of attachment. C20 diacid = O=C(O)CCCCCCCCCCCCCCCCCCC(=O)*; γGlu = O=C(O)[C@H](CCC(=O)[*:2])N[*:1]; AEEA = NCCOCCOCC(=O)O

This note sets out measurements from patent US20140087995A1 (published 2014).

In this assay the target is T1, human amylin receptor (human, UniProt P30988 25-474; O60896 24-148, limits assumed).
T1 construct: whole, on cells; Used as cell membranes prepared from the Amylin 3(a)/CRE-luc BHK cells (Assay V); also called hAmylin-R; hAmylinR
T1 sequence (looked up) 1: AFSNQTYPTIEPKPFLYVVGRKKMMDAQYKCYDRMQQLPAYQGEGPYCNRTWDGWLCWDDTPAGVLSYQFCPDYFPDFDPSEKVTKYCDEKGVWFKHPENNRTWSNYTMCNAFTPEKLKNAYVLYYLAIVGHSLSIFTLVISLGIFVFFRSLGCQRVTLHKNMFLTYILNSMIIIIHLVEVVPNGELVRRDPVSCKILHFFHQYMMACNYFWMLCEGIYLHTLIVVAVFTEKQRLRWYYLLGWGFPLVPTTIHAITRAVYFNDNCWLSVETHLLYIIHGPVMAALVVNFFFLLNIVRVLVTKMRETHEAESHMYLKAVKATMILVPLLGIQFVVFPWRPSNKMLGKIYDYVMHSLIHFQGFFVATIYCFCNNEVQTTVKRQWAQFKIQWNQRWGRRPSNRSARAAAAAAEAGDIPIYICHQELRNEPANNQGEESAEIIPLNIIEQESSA
T1 sequence (looked up) 2: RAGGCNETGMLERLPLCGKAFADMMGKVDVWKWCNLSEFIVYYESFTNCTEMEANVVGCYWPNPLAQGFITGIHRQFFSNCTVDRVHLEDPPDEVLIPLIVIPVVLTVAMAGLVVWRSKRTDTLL
Briefly: SPA competition vs 125I-rat amylin, membranes of amylin 3(a) receptor BHK cells (Assay V). How it is done: The binding assay was performed using scintillation proximity assay (SPA) beads (RPNQ0001) from PerkinElmer and cell membranes from the Amylin 3(a)/CRE-luc cells (as described in Assay (II)) were used. Membranes were prepared in the following way; the cells were rinsed with PBS and incubated with Versene for approximately 5 min before harvesting. The cells were flushed with PBS and the cell-suspension was centrifuged for 5 min at 1000 rpm. Cells were homogenized (ultrathurrax) in a buffer containing 20 mM Na-HEPES and 10 mM EDTA (pH 7.4) and centrifuged at 20.000 rpm for 15 min. The resulting pellet was resuspended, homogenized and centrifuged (20.000 rpm, 15 min) in a buffer containing 20 mM Na-HEPES and 0.1 mM EDTA (pH 7.4, buffer 2). The resulting pellet was resuspended in buffer 2 and protein concentration was measured (BCA protein Assay, Pierce). The homogenate was kept cold during the whole procedure. The membranes were kept at −80° C. until use. The assay was performed in a 384 well Optiplate (PerkinElmer) in a total volume of 40 ul. Membranes were mixed with SPA beads. Final concentration of membranes 35 ng/μL final and SPA beads was 0.05 mg/well. Test-compounds were dissolved in DMSO and further diluted in assay buffer (50 mM Hepes, pH 7.4, 1 mM CaCl2, 5 mM MgCl₂, 0.1% OA and 0.02% Tween20). […] The final mixture was incubated with shaking at 400 rpm for 120 min at 25° C. prior to centrifugation (1500 rpm, 10 min). Samples were analyzed on TopCounter™ (Packard). The IC₅₀ was calculated using (one site binding competition analysis) GraphPad Prism5 as a measure of receptor affinity.
The IC50 is the concentration that gives 50% inhibition. The low end stands for inhibition by little substance, the high end for a need for much substance. Take B1: the IC50 came out at 0.204 nM.

On to B2, for which the 50% inhibitory concentration (IC50) amounted to 0.249 nM.

B3: the IC50 is 0.919 nM.

On to B4, for which the IC50 was 0.768 nM. This IC50 and that of the molecule before are within 1.5-fold of each other.

For the molecule B5, the IC50 is 0.532 nM.
